{
  "source": "paper PMC3707680",
  "about": "“Structural and Pharmacological Characterization of Novel Potent and Selective Monoclonal Antibody Antagonists of Glucose-dependent Insulinotropic Polypeptide Receptor” (The Journal of Biological Chemistry, 2013)",
  "key": {"[1]": {"molecular_target": "T1, human GIP receptor on HEK293 cells (human) (UniProt P48546)", "T1 sequence": "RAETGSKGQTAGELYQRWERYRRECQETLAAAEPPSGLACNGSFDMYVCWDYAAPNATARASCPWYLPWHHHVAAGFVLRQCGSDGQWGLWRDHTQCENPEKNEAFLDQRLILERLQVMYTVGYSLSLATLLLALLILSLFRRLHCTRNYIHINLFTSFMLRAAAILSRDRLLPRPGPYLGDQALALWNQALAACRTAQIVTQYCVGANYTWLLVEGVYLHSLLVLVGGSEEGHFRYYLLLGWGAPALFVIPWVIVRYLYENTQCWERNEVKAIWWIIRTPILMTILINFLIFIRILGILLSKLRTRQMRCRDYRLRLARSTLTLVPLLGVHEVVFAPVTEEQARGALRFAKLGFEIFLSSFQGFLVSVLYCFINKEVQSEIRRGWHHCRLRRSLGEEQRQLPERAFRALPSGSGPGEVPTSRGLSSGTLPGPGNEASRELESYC"}, "[2]": {"molecular_target": "T1, human GIP receptor on HEK293 cells (human)", "experiment": "fluorescent microvolume assay technology (FMAT) on cells; receptor ligand competition with unlabelled peptides against AlexaFluor 647-labeled GIP on human GIPr-overexpressing cells; data not shown"}, "GIP(1–42) peptide": {"molecular_target": "GIP(1–42) peptide (UniProt P09681)"}, "biotinylated GIPr ECD": {"molecular_target": "T2, biotinylated GIPr ECD (Homo sapiens, biotin (EZ-link Sulfo-NHS-LC-Biotin), positions not stated)", "T2 construct": "glucose-dependent insulinotropic polypeptide receptor, human, extracellular domain; same construct as m4, biotinylated; held on Super Streptavidin biosensors; also called soluble biotinylated GIPr ECD", "T2 chain": "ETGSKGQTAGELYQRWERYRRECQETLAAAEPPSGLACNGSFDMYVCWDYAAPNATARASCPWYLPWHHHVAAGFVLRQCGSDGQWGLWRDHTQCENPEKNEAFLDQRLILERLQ", "experiment": "BLI; Octet RED (reflectometric interference spectroscopy); biotinylated GIPr ECD at 1.2 μg/ml on Super Streptavidin biosensors; scFv at ~0.5 μM (12.5 μg/ml), single concentration; PBS with kinetics buffer; 1:1 Langmuir", "conditions": "both partners purified"}, "[3]": {"molecular_target": "T3, human GIP receptor on HEK293 cells (human, UniProt P48546)", "T3 construct": "glucose-dependent insulinotropic polypeptide receptor, human, full-length receptor gene; also called HEK293 human GIPr; hGIPr; source: HEK293, stably transfected (pIRESneo3), on cells"}, "[4]": {"molecular_target": "T3, human GIP receptor on HEK293 cells", "remark": "listed apart in the source"}, "[5]": {"molecular_target": "T4, GIPr ECD (extracellular domain of the human GIP receptor) (Homo sapiens)", "T4 construct": "glucose-dependent insulinotropic polypeptide receptor, human, extracellular domain; also called GIPr extracellular domain", "T4 chain": "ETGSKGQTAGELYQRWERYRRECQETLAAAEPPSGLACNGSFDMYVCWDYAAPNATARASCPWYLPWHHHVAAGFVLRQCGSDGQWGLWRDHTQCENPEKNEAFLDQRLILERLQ", "experiment": "SPR; BIAcore, Gipg013 Fab and GIPr ECD; who was immobilised is not told for the Fab", "conditions": "both partners purified"}, "[6]": {"molecular_target": "T5, rat GLP-1 receptor on overexpressing cells (Rattus norvegicus, UniProt P32301)", "T5 construct": "glucagon-like peptide 1 receptor, rat; also called rGLP-1r; source: stably transfected cell line, on cells", "T5 sequence (P32301 22-463)": "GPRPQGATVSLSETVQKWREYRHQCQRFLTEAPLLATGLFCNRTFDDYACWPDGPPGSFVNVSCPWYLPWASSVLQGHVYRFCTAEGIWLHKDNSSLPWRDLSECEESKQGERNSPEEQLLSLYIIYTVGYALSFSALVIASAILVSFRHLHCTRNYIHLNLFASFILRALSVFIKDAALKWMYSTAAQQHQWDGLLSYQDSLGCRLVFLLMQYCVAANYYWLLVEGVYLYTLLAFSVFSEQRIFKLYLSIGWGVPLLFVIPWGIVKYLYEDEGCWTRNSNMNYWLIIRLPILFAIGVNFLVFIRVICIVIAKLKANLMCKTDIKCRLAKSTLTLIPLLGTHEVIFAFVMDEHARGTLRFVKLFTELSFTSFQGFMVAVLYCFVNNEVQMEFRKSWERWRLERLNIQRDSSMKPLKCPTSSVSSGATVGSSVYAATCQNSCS", "experiment": "fluorescent microvolume assay technology (FMAT) on cells; 0.25 μg/ml IgG with AlexaFluor 647-labeled goat anti-human IgG on stably transfected cells (5000 cells a well), Hanks' balanced salt solution with 0.1% BSA, room temperature, 3 h", "conditions": "one partner purified"}, "[7]": {"molecular_target": "T6, dog GLP-1 receptor on overexpressing cells (Canis lupus familiaris, UniProt A0A8I3NUR9)", "T6 construct": "glucagon-like peptide 1 receptor, dog; also called dGLP-1r; source: stably transfected cell line, on cells", "experiment": "fluorescent microvolume assay technology (FMAT) on cells; 0.25 μg/ml IgG with AlexaFluor 647-labeled goat anti-human IgG on stably transfected cells (5000 cells a well), Hanks' balanced salt solution with 0.1% BSA, room temperature, 3 h", "conditions": "one partner purified"}, "[8]": {"molecular_target": "T7, human glucagon receptor on overexpressing cells (Homo sapiens, UniProt P47871)", "T7 construct": "glucagon receptor, human; also called GCGr; hGCGr; source: stably transfected cell line, on cells", "T7 sequence (P47871 26-477)": "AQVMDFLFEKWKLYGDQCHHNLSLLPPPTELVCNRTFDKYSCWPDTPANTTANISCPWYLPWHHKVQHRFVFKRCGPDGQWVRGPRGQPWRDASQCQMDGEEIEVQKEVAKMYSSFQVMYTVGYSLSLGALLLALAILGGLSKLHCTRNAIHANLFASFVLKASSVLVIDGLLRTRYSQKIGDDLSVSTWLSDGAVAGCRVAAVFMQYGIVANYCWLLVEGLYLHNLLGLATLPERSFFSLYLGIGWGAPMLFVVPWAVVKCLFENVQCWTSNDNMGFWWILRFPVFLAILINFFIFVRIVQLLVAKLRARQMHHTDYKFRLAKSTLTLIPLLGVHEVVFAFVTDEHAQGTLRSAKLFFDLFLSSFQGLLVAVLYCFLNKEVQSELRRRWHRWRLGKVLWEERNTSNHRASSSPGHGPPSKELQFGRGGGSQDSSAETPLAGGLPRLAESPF", "experiment": "fluorescent microvolume assay technology (FMAT) on cells; 0.25 μg/ml IgG with AlexaFluor 647-labeled goat anti-human IgG on stably transfected cells (5000 cells a well), Hanks' balanced salt solution with 0.1% BSA, room temperature, 3 h", "conditions": "one partner purified"}, "[9]": {"molecular_target": "T8, rat glucagon receptor on overexpressing cells (Rattus norvegicus, UniProt P30082)", "T8 construct": "glucagon receptor, rat; also called GCGr; rGCGr; source: stably transfected cell line, on cells", "T8 sequence (P30082 27-485)": "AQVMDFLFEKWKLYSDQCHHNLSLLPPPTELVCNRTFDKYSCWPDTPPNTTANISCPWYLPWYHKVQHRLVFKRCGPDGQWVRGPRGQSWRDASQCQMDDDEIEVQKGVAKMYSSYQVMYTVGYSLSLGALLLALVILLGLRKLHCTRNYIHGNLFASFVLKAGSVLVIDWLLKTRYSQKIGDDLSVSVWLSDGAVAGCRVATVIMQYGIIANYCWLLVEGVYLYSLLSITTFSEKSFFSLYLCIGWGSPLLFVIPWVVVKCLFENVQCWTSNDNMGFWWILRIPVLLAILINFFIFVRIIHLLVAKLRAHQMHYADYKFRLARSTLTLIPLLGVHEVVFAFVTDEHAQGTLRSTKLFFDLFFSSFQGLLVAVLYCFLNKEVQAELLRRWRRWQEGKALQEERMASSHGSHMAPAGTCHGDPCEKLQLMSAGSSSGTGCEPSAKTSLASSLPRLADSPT", "experiment": "fluorescent microvolume assay technology (FMAT) on cells; 0.25 μg/ml IgG with AlexaFluor 647-labeled goat anti-human IgG on stably transfected cells (5000 cells a well), Hanks' balanced salt solution with 0.1% BSA, room temperature, 3 h", "conditions": "one partner purified"}, "[10]": {"molecular_target": "T9, mouse GIP receptor on HEK293 cells (Mus musculus, UniProt Q0P543)", "T9 construct": "glucose-dependent insulinotropic polypeptide receptor, mouse, full-length receptor gene; also called mGIPr; source: HEK293, stably transfected (pIRESneo3), on cells", "T9 sequence (Q0P543 19-460)": "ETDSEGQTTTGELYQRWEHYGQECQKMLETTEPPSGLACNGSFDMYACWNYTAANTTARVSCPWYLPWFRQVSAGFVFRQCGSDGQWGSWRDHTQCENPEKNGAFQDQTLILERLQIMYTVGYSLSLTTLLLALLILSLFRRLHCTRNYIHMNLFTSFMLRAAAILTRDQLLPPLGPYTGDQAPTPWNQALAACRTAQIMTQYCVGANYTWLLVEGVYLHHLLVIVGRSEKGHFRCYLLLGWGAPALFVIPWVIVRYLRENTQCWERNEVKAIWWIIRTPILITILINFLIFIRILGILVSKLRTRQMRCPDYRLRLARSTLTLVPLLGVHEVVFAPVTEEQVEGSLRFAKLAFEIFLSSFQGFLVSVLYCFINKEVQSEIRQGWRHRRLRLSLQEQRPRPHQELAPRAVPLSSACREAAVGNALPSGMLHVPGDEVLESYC", "experiment": "fluorescent microvolume assay technology (FMAT) on cells; 0.25 μg/ml IgG with AlexaFluor 647-labeled goat anti-human IgG on stably transfected cells (5000 cells a well), Hanks' balanced salt solution with 0.1% BSA, room temperature, 3 h", "conditions": "one partner purified"}, "[11]": {"molecular_target": "T10, human GLP-1 receptor on overexpressing cells (Homo sapiens, UniProt P43220)", "T10 construct": "glucagon-like peptide 1 receptor, human; also called hGLP-1r; source: stably transfected cell line, on cells", "T10 sequence (P43220 24-463)": "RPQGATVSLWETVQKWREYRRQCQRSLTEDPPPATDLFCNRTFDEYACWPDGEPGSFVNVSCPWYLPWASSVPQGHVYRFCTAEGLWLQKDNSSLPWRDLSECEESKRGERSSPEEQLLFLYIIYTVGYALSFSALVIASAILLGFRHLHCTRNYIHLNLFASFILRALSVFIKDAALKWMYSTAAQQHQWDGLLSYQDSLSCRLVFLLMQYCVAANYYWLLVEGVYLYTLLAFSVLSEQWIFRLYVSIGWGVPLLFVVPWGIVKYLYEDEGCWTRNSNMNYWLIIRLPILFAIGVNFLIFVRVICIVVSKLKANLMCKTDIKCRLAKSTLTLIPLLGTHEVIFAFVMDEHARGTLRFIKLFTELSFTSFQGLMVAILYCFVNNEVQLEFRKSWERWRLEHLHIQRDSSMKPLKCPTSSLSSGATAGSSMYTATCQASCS", "experiment": "fluorescent microvolume assay technology (FMAT) on cells; 0.25 μg/ml IgG with AlexaFluor 647-labeled goat anti-human IgG on stably transfected cells (5000 cells a well), Hanks' balanced salt solution with 0.1% BSA, room temperature, 3 h", "conditions": "one partner purified"}, "[12]": {"molecular_target": "T11, mouse glucagon receptor on overexpressing cells (Mus musculus, UniProt Q61606)", "T11 construct": "glucagon receptor, mouse; also called GCGr; mGCGr; source: stably transfected cell line, on cells", "T11 sequence (Q61606 27-485)": "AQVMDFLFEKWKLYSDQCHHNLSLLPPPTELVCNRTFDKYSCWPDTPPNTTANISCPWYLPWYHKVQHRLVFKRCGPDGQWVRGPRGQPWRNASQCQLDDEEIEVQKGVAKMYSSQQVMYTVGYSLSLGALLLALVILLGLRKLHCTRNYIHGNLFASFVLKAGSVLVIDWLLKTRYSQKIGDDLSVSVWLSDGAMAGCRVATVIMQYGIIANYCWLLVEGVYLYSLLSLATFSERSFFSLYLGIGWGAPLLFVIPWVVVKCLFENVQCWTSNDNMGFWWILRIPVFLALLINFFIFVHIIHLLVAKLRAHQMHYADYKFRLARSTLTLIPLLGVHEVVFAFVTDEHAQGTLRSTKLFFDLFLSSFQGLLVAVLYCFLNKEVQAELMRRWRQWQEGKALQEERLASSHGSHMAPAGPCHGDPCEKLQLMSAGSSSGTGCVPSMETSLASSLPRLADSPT", "experiment": "fluorescent microvolume assay technology (FMAT) on cells; 0.25 μg/ml IgG with AlexaFluor 647-labeled goat anti-human IgG on stably transfected cells (5000 cells a well), Hanks' balanced salt solution with 0.1% BSA, room temperature, 3 h", "conditions": "one partner purified"}, "[13]": {"molecular_target": "T12, mouse GLP-1 receptor on overexpressing cells (Mus musculus, UniProt O35659)", "T12 construct": "glucagon-like peptide 1 receptor, mouse; also called mGLP-1r; source: stably transfected cell line, on cells", "T12 sequence (O35659 22-463)": "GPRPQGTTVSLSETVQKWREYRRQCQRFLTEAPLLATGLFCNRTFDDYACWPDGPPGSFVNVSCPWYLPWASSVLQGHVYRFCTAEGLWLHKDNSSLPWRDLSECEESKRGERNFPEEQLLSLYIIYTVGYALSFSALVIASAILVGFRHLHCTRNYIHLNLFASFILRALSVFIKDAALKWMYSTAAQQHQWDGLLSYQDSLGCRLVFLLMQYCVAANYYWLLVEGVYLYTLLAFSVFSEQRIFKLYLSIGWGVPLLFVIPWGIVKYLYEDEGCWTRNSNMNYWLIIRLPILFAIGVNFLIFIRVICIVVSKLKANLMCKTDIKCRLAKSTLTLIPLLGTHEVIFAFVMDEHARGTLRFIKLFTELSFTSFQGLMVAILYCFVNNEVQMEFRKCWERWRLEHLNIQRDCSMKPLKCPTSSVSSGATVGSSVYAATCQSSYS", "experiment": "fluorescent microvolume assay technology (FMAT) on cells; 0.25 μg/ml IgG with AlexaFluor 647-labeled goat anti-human IgG on stably transfected cells (5000 cells a well), Hanks' balanced salt solution with 0.1% BSA, room temperature, 3 h", "conditions": "one partner purified"}, "[14]": {"molecular_target": "T3, human GIP receptor on HEK293 cells", "experiment": "fluorescent microvolume assay technology (FMAT) on cells; receptor ligand competition: dilution series of antibody against 0.5 nM AlexaFluor 647-labeled GIP on HEK293 human GIPr cells, Hanks' balanced salt solution with 0.1% BSA, room temperature, 1–2 h", "conditions": "one partner purified"}, "[15]": {"molecular_target": "T4, GIPr ECD (extracellular domain of the …)", "experiment": "SPR; Biacore 2000; Gipg013 IgG amine-coupled to a CM5 chip at low density (~139 resonance units), GIPr ECD in solution; 25 °C, 30 μl/min, HBS-N (10 mM HEPES, pH 7.4, 150 mM sodium chloride); 1:1 Langmuir model", "conditions": "both partners purified"}},
  "note": "Where two headings read alike, the source gives them in different places.",
  "data": [
    {"molecule": "Pro3GIP (peptide)", "values": [
      {"measurement": "cAMP HTRF assay, agonism in HEK293 human GIPr cells (partial, to 83% of the response with GIP)", "setting": "[1]", "value": 180, "unit": "nM"}
    ]},
    {"molecule": "GIP(7–30) (peptide)", "values": [
      {"measurement": "cAMP HTRF assay, antagonism of GIP-induced cAMP production in HEK293 human GIPr cells", "setting": "[1]", "value": 230, "unit": "nM"},
      {"measurement": "IC50", "setting": "[2]", "value": 83, "unit": "nM"}
    ]},
    {"molecule": "biotinylated GIPr ECD (domain or fragment)", "values": [
      {"measurement": "cAMP assay on HEK293 GIPr cells: soluble GIPr ECD competes with the cell surface GIPr for GIP", "setting": "GIP(1–42) peptide", "value": 7, "unit": "µM"}
    ]},
    {"molecule": "Gipg013 scFv (scFv, V domains shown, VH as in the heavy chain of m1; VL as in the light chain of m1; phage vector pCantab6 is named for the libraries) VH: QVQLQQSGAEVKKPGSSVKVSCKASGGTFSSYAISWVRQAPGQGLEWMGGIIPTFGTANYAQKFQGRVTITADESTSTAYMELSSLRSEDTAVYYCAQGPIVGAPTDYWGKGTLVTVSS VL: SYVLTQPPSASGTPGQRVAISCSGSNSNIGSNTVHWYQQLPGAAPKLLIYSNNQRPSGVPDRFSGSNSGTSASLAISRLQSEDEADYYCAAWDDSLNGVVFGGGTKVTVL", "values": [
      {"measurement": "Kd", "setting": "biotinylated GIPr ECD", "value": 25, "unit": "nM"},
      {"measurement": "koff", "setting": "biotinylated GIPr ECD", "value": 0.00188, "unit": "s⁻¹"},
      {"measurement": "kon", "setting": "biotinylated GIPr ECD", "value": 74500, "unit": "M⁻¹ s⁻¹"},
      {"measurement": "cAMP HTRF assay, antagonism of GIP-induced cAMP production in HEK293 human GIPr cells (blocks GIP on GIPr)", "setting": "[3]", "value": 233, "unit": "nM"}
    ]},
    {"molecule": "Gipg013 Fab (Fab, V domains shown, heavy chain of the Fab, PDB 4HJ0 chains P and C (final model Gln3-Val217, 206 residues); as the heavy chain of m1 up to the papain cut; light chain of the Fab, PDB 4HJ0 chains Q and D (final model Ser1-Glu213, 211 residues); as the light chain of m1; also called Gip013 Fab; source: papain digestion of the antibody) VH: QVQLQQSGAEVKKPGSSVKVSCKASGGTFSSYAISWVRQAPGQGLEWMGGIIPTFGTANYAQKFQGRVTITADESTSTAYMELSSLRSEDTAVYYCAQGPIVGAPTDYWGKGTLVTVSS VL: SYVLTQPPSASGTPGQRVAISCSGSNSNIGSNTVHWYQQLPGAAPKLLIYSNNQRPSGVPDRFSGSNSGTSASLAISRLQSEDEADYYCAAWDDSLNGVVFGGGTKVTVL", "values": [
      {"measurement": "cAMP HTRF assay, antagonism of GIP-induced cAMP production in HEK293 human GIPr cells (blocks GIP on GIPr)", "setting": "[4]", "value": 102, "unit": "nM"},
      {"measurement": "Kd", "setting": "[5]", "value": 40, "unit": "nM"}
    ]},
    {"molecule": "Gipg013 IgG (antibody, V domains shown, VH of Gipg013; also in PDB 4HJ0 (heavy chain of the Fab, chains P and C); heavy chain constant region of human IgG1 (full-length antibody in the IgG1 format); the light chain is in PDB 4HJ0 (chains Q and D); IgG1; converted from the scFv clone; also called GIP013; Gipr013; source: mammalian cells (variable genes cloned into the pEU vectors), purified; copies: 2 + 2) VH: QVQLQQSGAEVKKPGSSVKVSCKASGGTFSSYAISWVRQAPGQGLEWMGGIIPTFGTANYAQKFQGRVTITADESTSTAYMELSSLRSEDTAVYYCAQGPIVGAPTDYWGKGTLVTVSS VL: SYVLTQPPSASGTPGQRVAISCSGSNSNIGSNTVHWYQQLPGAAPKLLIYSNNQRPSGVPDRFSGSNSGTSASLAISRLQSEDEADYYCAAWDDSLNGVVFGGGTKVTVL", "values": [
      {"measurement": "binding result", "setting": "[6]", "value": "no binding (tested: 0.25 μg/ml)"},
      {"measurement": "binding result", "setting": "[7]", "value": "no binding (tested: 0.25 μg/ml)"},
      {"measurement": "binding result", "setting": "[8]", "value": "no binding (tested: 0.25 μg/ml)"},
      {"measurement": "binding result", "setting": "[9]", "value": "no binding (tested: 0.25 μg/ml)"},
      {"measurement": "binding result", "setting": "[10]", "value": "binds"},
      {"measurement": "binding result", "setting": "[11]", "value": "no binding (tested: 0.25 μg/ml)"},
      {"measurement": "binding result", "setting": "[12]", "value": "no binding (tested: 0.25 μg/ml)"},
      {"measurement": "binding result", "setting": "[13]", "value": "no binding (tested: 0.25 μg/ml)"},
      {"measurement": "IC50", "setting": "[14]", "value": "17.2 ± 6", "unit": "nM"},
      {"measurement": "Kd", "setting": "[15]", "value": 23, "unit": "nM"},
      {"measurement": "koff", "setting": "[15]", "value": 0.00369, "unit": "s⁻¹"},
      {"measurement": "kon", "setting": "[15]", "value": 159000, "unit": "M⁻¹ s⁻¹"}
    ]}
  ]
}
